Measurements published in patent publication US8278037B2, “N-acetylgalactosamine transferases and nucleic acids encoding the same” (National Institute of Advanced Industrial Science and …, priority 2002, dated 2012).

What was measured:
[1] = test system: asialo/agalacto-fetal calf fetuin; test: LacdiNAc synthesizing activity toward asialo/agalacto-fetal calf fetuin, WFA lectin blot; format: biochemical; conditions: 37° C. for 16 hr, HRP conjugated WFA lectin detection
Procedure: Fetal calf fetuin (FCF), neuraminidase, β1-4 galactosidase and glycopeptidase F were purchased from Sigma, Nacalai Tesque (Kyoto, Japan), Calbiochem and Takara, respectively. Asialo/agalacto-FCF was prepared from 200 μg of FCF by incubating with 4 μU of neuraminidase and 12 μU of β1,4-galactosidase at 37° C. for 16 hr. The transfer of GalNAc by GalNAc-T2 to glycoprotein was performed in 20 μl of a standard reaction mixture containing 50 μg of asialo/agalacto-FCF produced by glycosidase treatment. After the incubation at 37° C. for 16 hr, each 5 μl of the reaction mixture was digested with glycopeptidase F (GPF) according to manufacture's instruction. For detection of transferred GalNAc, horseradish peroxidase (HRP) conjugated lectin, Wisteria floribunda agglutinin (WFA) (EY Laboratories, San Mateo, Calif.), was used. A 1 μl of reaction mixtures subjected to 12.5% SDS-PAGE were transferred to nitrocellulose membrane (Schleicher & Schuell, Keene, N.H.) and stained with 0.1% HRP conjugated WFA lectin. The signals were detected using enhanced chemiluminescence (ECL) and Hyperfilm ECL (Amersham Biosciences).

glycodelin in CHO cells = test: N-glycan structures on glycodelin from NGalNAc-T gene transfected CHO cells, WFA lectin blotting; format: cell-based; conditions: gene co-transfected with glycodelin gene in CHO cells, 48 hr culture medium
Source text: As shown above, both NGalNAc-T1 and -T2 could synthesize LacdiNAc structures on mono- and oligosaccharide acceptors. Actually, it is known that the LacdiNAc structures exist in N-glycans on some glycoproteins. Therefore we examined the ability of NGalNAc-T1 to construct LacdiNAc on glycodelin, which is one of major glycoproteins carrying LacdiNAc structures, in vivo. CHO cells were employed for this purpose, because glycodelin produced in CHO cells is devoid of any of the LacdiNAc-based chains.
The glycodelin expression vector was transfected into CHO cells expressing NGalNAc-T1 or -T2 gene and the culture medium was collected from 48 hr-culture medium. Glycodelin was harvested with WFA affinity column from the culture medium. The harvested glycodelin was applied to SDS-PAGE and used for lectin blotting with WFA.

NGalNAc-T1 = target: T1, NGalNAc-T1 (Homo sapiens, UniProt Q76KP1); test: Study of optimum pH in enzymatic activity; format: biochemical; conditions: for (A) − (B): blank 263.21 subtracted
T1 sequence (Q76KP1 62-1039): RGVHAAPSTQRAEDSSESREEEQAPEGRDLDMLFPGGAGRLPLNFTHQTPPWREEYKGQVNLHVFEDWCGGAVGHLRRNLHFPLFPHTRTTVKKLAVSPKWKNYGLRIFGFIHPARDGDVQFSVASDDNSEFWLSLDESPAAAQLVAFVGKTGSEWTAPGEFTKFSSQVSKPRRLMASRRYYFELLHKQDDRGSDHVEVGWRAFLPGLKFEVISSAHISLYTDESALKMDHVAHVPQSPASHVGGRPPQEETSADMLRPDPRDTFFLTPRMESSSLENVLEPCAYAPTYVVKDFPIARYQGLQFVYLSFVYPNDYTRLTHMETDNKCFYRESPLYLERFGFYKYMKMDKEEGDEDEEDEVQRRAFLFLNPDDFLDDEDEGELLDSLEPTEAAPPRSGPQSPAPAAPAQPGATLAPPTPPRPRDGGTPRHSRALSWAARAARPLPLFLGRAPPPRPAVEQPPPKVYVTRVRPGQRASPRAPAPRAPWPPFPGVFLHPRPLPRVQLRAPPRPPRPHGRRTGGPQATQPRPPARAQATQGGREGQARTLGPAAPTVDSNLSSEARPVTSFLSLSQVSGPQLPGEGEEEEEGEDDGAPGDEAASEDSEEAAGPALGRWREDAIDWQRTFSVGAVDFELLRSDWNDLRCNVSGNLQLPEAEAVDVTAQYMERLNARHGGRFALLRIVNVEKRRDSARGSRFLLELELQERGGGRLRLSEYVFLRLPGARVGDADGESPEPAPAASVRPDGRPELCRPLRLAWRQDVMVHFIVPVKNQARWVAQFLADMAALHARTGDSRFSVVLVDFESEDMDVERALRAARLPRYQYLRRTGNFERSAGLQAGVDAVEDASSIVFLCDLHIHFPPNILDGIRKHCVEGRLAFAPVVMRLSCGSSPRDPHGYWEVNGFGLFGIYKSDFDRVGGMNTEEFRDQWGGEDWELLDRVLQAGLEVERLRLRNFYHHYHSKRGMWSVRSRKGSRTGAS
Source text: As described above, it was explained that NGalNAc-T1 and NGalNAc-T2 are glycosyl transferases which transfer GalNAc to GlcNAc. Thereat, the optimum pH of both enzymes was studied. The buffer solutions used are MES (pH 5.5, 6.0, 6.26, 6.5, 6.75), HEPES (pH 6.75, 7.0, 7.4).
In addition, the value (263.21 dpm) of MES (pH 6.75) was adopted as a blank value in the case of a non-enzyme. Further, when pH of HEPES buffer was 7.4 for NGalNAc-T1 and 6.75 for NGalNAc-T2, the highest value was shown. […] Hereinafter, MES (pH 6.5) was used in each of experiments.

pH at which the highest value was shown (NGalNAc-T1; HEPES buffer): 7.4
Incorporation of radioactivity (A) (NGalNAc-T1; HEPES buffer (pH 6.75)): 1685.06 dpm
(A) − (B) (NGalNAc-T1; HEPES buffer (pH 6.75)): 1421.85 dpm
Incorporation of radioactivity (A) (NGalNAc-T1; HEPES buffer (pH 7.0)): 1138.38 dpm
(A) − (B) (NGalNAc-T1; HEPES buffer (pH 7.0)): 875.17 dpm
Incorporation of radioactivity (A) (NGalNAc-T1; HEPES buffer (pH 7.4)): 2587.48 dpm
(A) − (B) (NGalNAc-T1; HEPES buffer (pH 7.4)): 2324.27 dpm
pH at which the activity tends to be higher (NGalNAc-T1; MES buffer): 6.5
Incorporation of radioactivity (A) (NGalNAc-T1; MES buffer (pH 5.5)): 339.76 dpm
(A) − (B) (NGalNAc-T1; MES buffer (pH 5.5)): 76.55 dpm
Incorporation of radioactivity (A) (NGalNAc-T1; MES buffer (pH 6.0)): 321.04 dpm
(A) − (B) (NGalNAc-T1; MES buffer (pH 6.0)): 57.83 dpm
Incorporation of radioactivity (A) (NGalNAc-T1; MES buffer (pH 6.26)): 636.34 dpm
(A) − (B) (NGalNAc-T1; MES buffer (pH 6.26)): 373.13 dpm
Incorporation of radioactivity (A) (NGalNAc-T1; MES buffer (pH 6.5)): 1767.72 dpm
(A) − (B) (NGalNAc-T1; MES buffer (pH 6.5)): 1504.51 dpm
Incorporation of radioactivity (A) (NGalNAc-T1; MES buffer (pH 6.75)): 923.92 dpm
(A) − (B) (NGalNAc-T1; MES buffer (pH 6.75)): 660.71 dpm
B1: NGalNAc-T1: human enzyme (SEQ ID NO: 1) transferring N-acetylgalactosamine to N-acetylglucosamine via β1-4 linkage; tested as FLAG-tagged amino acids 62-1039 (protein, listed as Homo sapiens)
chain: RGVHAAPSTQRAEDSSESREEEQAPEGRDLDMLFPGGAGRLPLNFTHQTPPWREEYKGQVNLHVFEDWCGGAVGHLRRNLHFPLFPHTRTTVKKLAVSPKWKNYGLRIFGFIHPARDGDVQFSVASDDNSEFWLSLDESPAAAQLVAFVGKTGSEWTAPGEFTKFSSQVSKPRRLMASRRYYFELLHKQDDRGSDHVEVGWRAFLPGLKFEVISSAHISLYTDESALKMDHVAHVPQSPASHVGGRPPQEETSADMLRPDPRDTFFLTPRMESSSLENVLEPCAYAPTYVVKDFPIARYQGLQFVYLSFVYPNDYTRLTHMETDNKCFYRESPLYLERFGFYKYMKMDKEEGDEDEEDEVQRRAFLFLNPDDFLDDEDEGELLDSLEPTEAAPPRSGPQSPAPAAPAQPGATLAPPTPPRPRDGGTPRHSRALSWAARAARPLPLFLGRAPPPRPAVEQPPPKVYVTRVRPGQRASPRAPAPRAPWPPFPGVFLHPRPLPRVQLRAPPRPPRPHGRRTGGPQATQPRPPARAQATQGGREGQARTLGPAAPTVDSNLSSEARPVTSFLSLSQVSGPQLPGEGEEEEEGEDDGAPGDEAASEDSEEAAGPALGRWREDAIDWQRTFSVGAVDFELLRSDWNDLRCNVSGNLQLPEAEAVDVTAQYMERLNARHGGRFALLRIVNVEKRRDSARGSRFLLELELQERGGGRLRLSEYVFLRLPGARVGDADGESPEPAPAASVRPDGRPELCRPLRLAWRQDVMVHFIVPVKNQARWVAQFLADMAALHARTGDSRFSVVLVDFESEDMDVERALRAARLPRYQYLRRTGNFERSAGLQAGVDAVEDASSIVFLCDLHIHFPPNILDGIRKHCVEGRLAFAPVVMRLSCGSSPRDPHGYWEVNGFGLFGIYKSDFDRVGGMNTEEFRDQWGGEDWELLDRVLQAGLEVERLRLRNFYHHYHSKRGMWSVRSRKGSRTGAS
modifications: FLAG tag
transfer of GalNAc to glycoprotein asialo/agalacto-FCF [1]: same as NGalNAc-T2
non-reducing terminal GalNAc on glycodelin (glycodelin in CHO cells): non-reducing terminal GalNAc is detected
